# Biological target: Stx2k B-subunit (of the Stx2kE167Q toxoid) (Escherichia coli)
# Experiment: crystal structure
substance,measurement,value
Stx2k B-subunit (of the Stx2kE167Q toxoid) (natural protein),stoichiometry N,5
